The values below come from paper PMC4280530 (2014).

The koff is a measure of how fast the partners let go of each other. High values mean a short-lived complex, low ones a long-lived complex. The Kd is the equilibrium constant for the complex coming apart.

The target of test [1] is T1, Bacillus thuringiensis (Bt) Cry1Ac toxin (Bacillus thuringiensis, UniProt P05068 1-1178). Put plainly: SPR. (In general: SPR reads the build-up and loss of mass on a sensor chip optically.)
Test [2] deals with T1, Bacillus thuringiensis (Bt) Cry1Ac toxin. Put plainly: SPR. This is another data set of the same source.

T1 sequence (P05068 whole entry): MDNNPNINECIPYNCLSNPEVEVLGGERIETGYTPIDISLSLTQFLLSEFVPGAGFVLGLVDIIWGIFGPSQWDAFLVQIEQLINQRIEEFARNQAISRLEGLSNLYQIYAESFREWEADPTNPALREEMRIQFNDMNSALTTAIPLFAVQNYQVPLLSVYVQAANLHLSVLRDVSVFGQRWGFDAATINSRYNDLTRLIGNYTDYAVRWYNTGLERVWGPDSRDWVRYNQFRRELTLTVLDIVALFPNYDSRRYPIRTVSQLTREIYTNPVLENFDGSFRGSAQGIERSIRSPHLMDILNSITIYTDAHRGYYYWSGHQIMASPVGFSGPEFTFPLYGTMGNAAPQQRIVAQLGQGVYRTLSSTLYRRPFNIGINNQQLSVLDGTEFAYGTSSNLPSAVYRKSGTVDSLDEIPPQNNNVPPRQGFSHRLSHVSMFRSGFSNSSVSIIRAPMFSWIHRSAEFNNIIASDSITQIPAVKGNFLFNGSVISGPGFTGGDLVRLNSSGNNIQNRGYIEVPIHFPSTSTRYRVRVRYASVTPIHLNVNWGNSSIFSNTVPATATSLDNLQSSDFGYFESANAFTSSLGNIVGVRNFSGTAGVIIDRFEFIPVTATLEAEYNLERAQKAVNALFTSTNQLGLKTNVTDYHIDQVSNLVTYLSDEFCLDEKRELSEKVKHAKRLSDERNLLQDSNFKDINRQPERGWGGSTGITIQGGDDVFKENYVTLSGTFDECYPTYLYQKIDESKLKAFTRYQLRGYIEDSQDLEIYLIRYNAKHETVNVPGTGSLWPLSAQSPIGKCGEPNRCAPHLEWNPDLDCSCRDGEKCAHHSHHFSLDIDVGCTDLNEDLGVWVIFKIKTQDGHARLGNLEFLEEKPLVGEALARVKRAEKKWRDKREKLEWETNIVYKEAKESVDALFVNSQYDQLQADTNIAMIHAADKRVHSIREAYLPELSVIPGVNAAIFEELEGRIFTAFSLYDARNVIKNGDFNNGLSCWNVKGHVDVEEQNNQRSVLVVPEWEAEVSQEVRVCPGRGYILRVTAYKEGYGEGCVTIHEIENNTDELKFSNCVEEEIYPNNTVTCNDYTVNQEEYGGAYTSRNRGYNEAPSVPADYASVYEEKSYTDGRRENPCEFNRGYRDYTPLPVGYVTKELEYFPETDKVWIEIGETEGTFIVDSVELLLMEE

B1: anti-Cry1Ac nanobody Nb61 (VHH)
VHH: QVQLQESGGGSVQAGGSLRLSCEASENTYNSVYMAWFRQAPEKEREGVAVLSTGGGRTYYTDSVKGRFTISRDNAKNMVYLQMNSLKPDDTAMYYCAATYTGDSYGPSLYYLTPGRYEYWGQGTQVTVSS
Take B1: the koff in test [1] stood at 0.00084 s⁻¹. In addition, the equilibrium dissociation constant (Kd) in test [2] was found to be 0.0609 µM.

B2: anti-Cry1Ac nanobody Nb59 (VHH)
VHH: QVQLQESGGGLVQPGGSLRLSCAASGFTFRDYYMTWVRQAPGQGLEWVSSISFGGGRTYYADSVKGRFTISRDNPENTLYLQLSNLKTEDTAMYYCARGRPNADYDRRGQGTQVTVSS
In turn, B2 displayed an off-rate constant (koff) in test [1] of 0.00178 s⁻¹. The same molecule registered a Kd in test [2] of 0.018 µM.

B3: anti-Cry1Ac nanobody Nb44 (VHH)
VHH: QVQLQESGGGSVQAGGSLRLSCATSGLTYSARITWFRQAPEKEREGVATFSTGSGSTGYADSVKGRFTISQDNAKNTLYLQMNNLKPEDTAMYYCAADTSTSWRDIVLVARYKYWGQGTQVTVSS
In the case of B3, the off-rate constant (koff) in test [1] was 0.0014 s⁻¹. In test [2], this molecule returned a Kd of 0.00689 µM.

B4: anti-Cry1Ac nanobody Nb58 (VHH)
VHH: QVQLQESGGGLVQPGGSLRLSCTASGFTFSSYEMDWFRRAPGKELEWVAGITSGGEGTSYRNSVKGRFTISRDNAKNTLYLHLNSLKNEDTAMYYCAKDRRALGEVGQGTQVTVSS
Regarding B4, in test [1], the koff turned out to be 0.00151 s⁻¹. The molecule further showed a dissociation constant (Kd) in test [2] of 0.0232 µM.
